In the DeepSol protein solubility set:

Assay: soluble on expression in E. coli; label from the status in PepcDB or PDB records

Row | Sequence | soluble on expression in E. coli
1 | MAHHHHHHMWQHHNLSSPTLGPREAKPTVQTSRRGCMRSDAWCSSLAGGGHDDPSESVPNSRVSPRASSFAPPQRTAPSPTESTSQELFELQNCNHHKQQQKQQLVIRQEDIRDDDFQRLEVLGDGSYSVVVSARHLPTQQLVALKEVSRHRLRELKLEKQLQWEINVHRTLRHPNVVRMLSYYITPQTVVLVLEMCPGGTLLQKLKTMPGGRFDERRASRYVRQAARALTYLHGHGIAHRDLKLENIFLDAHGVARLGDFGWSKALVEPTVEQDLSSHHDNFGTAPCSAAKDVSPLCSGGRGRLTVCGTLDYLSPEMLIGMPHTFKTDVWSLGVMLAEMLTGAPPFYCVSQQDTLNAIREAAPHLGDDVQMSSLARELVLAMLQKNPDARPTMAEVLQHPWTRQNGEKKKKKK | soluble
2 | MAHHHHHHSLMLVVRPISMADYEALHTCAVESGHGFTSLPVDQELLTNRITHSEYSFSKPNVTMPGDEGYLMVGVDTETGQVAGTTGIEASIGWDVPFYSYHISTIVHSSPKLGVNNVVKLLTFGNNYTGCSEICTLFLRPQYRQGLNGRLMSKCRFLMMAEHSHRFSKTIFAEMRGVSDADGNSPFWKWLQEHFFSIDFTLADYLTGIGKKGFIADLMPKLPIYVNLLSKEAQAVIGQVHENTRPALVLLEKEGFTCRNYVDIFDAGPTVECELNNIESVRHSVRAIVEVAEHSSSQNFIMCNTSFENFRATAAKAAYSQEDNAVIISPKVAAALEVSTGDYLRILAQEG | not soluble
3 | MAHHHHHHSLRGIIKRLNDDGFGILYNKILVPFSAPGDEVEVLKTEKQKRAKIATEWRLLRSSPIRVGARCKVFGKCGGCILQHINYNSQLEFKKEKLRKILGREVEIIPSPRIFGHRNRIDLAVTVNAIGFREKGKWWSVVDVEECPVFGKTSKKAIERLREYIEEEKVSTWKIREDSGFLRYMVLREGKFTGEIMVNFVTKEGELPDPTSYFDFADSIYWSINRSKSDVSYGDIEKYWGKEFIMEELDGVKYLIHPNSFFQTNSYQAVNLVKTVEKFVEGEKVVDMYSGVGTFGVYLAKKGMKVVGFDSNAFAIEMANKNAEINNVEAEFFVASDREVDIKGFDTVIVDPPRAGLHPKLVKRLNDHGPETIVYVSCNPKTFKVNIEQLNNYIIEELIALDMFPHTPHIELVGKLRRLVEG | soluble
4 | MAHHHHHHSLRLKEQSLQVTTKTGKESQKKTQTTAKSTITVDIKGAVKHEGVYTLPIDSRINDVIEKAGGFSEKADRKSVNLAQKLQDEAVIYVAAIGENISVIRDSQEGKTSQADKANTKETSVKGKVNLNTATLADLQTISGIGEKKAQDILDYREANGGFKSVDDLKNISGIGDKTFEKLKDLVSVDEG | soluble
5 | MAHHHHHHSLRMTQAKTYKVSRDETQHGKDSEHHLIAGYNSSMRLWHNEEPSDTADKTPRSHEYETLGYVISGQVELTVDGQTLTLSAGDSYRVPKGAEHVFRVTETLTAVEVTTPATNKEG | soluble
6 | MAHSKHGLKEEMTMKYHMEGCVNGHKFVITGEGIGYPFKGKQTINLCVIEGGPLPFSEDILSAGFMYGDRIFTEYPQDIVDYFKNSCPAGYTWGRSFLFEDGAVCICNVDITVSVKENCIYHKSIFNGMNFPADGPVMKKMTTNWEASCEKIMPVPKQGILKGDVSMYLLLKDGGRYRCQFDTVYKAKSVPSKMPEWHFIQHKLLREDRSDAKNQKWQLTEHAIAFPSALA | soluble
7 | MAIEIPNMIQIGSTGRNSGKTTLAEALIKQYQEVYPIYGLKIITISGQRGVCQRGTKGCGICTSITAGYELVEEQETIGNKDTMKLLAAGCQKVFLLKVFQENLAEAIQQFLKAVPAQALIICESNSLRNVVQPGLFLMMNNQNRQKESAKKVIDKADFCLLSAEIPKKLRIYYQGEQLQVSLKRGNKKECVH | not soluble
8 | MAISKKKRFFFDLAQDEDDAETVQEVKKVEQQLKLEPVVQPQHDLTNQTKANQSSQDRKFFSKDMPQFDFGPLLKFGDEFVKSFNQFPKQEPQTSTQPVNVQPQSEPTNFNNQVPTQPVHQTAEVHLNEFQQPTTTNFNQQPVATSNIQVEATQPIVEPVPQPEPQPAVEQPQVKQTTRPSNKLQEEENLPPPKAKVPGIIPLERQERLTTGVHFYTSTRVWNKVKRYAKAVNIPISRILTMILDQVIEE | soluble
9 | MAISLRQLEIFEKVAQCEHVTQASTQLFLTQSAVSMAIAELERVAGAPLFERRGKRLLLNDRGRKILPEAEEVVRRTRAIEQFLEDSAGEPRGVLNVGASTTIGNYILPELIAEFSGNYPDAKVLLTIGNAHQIEHALEKGELDLGLIEGIPHSGVLDSTPWKKDELVVVVGKGHPWACDGAASVEMLGNAPWIMRETGSGTREVFEGAMAGKGISFSISLELGHTEAIKKAIEAGLGVGCLSRIAVNRELEHGWLVEIACPLDLKRTLSLQTRQSGYKTRLLCAFWSLLNRHKDI | not soluble
